{
  "source": "paper PMC8705320",
  "key": {"[1]": {"molecular_target": "human cathepsin L (human) (UniProt P07711)", "assay": "enzyme inhibition kinetics (Dixon plot); cathepsin L 0.4 nM; Cystatin-Hv 8, 16 and 24 nM; Z-FR-AMC substrate at 1 Km and 2 Km; 50 mM sodium phosphate, 200 mM NaCl, 5 mM EDTA, pH 5.5, 6 mM DTT preactivation; 37 °C; fluorescence read each minute for 15 min"}, "papain": {"molecular_target": "papain (UniProt P00784)", "sequence (P00784 134-345)": "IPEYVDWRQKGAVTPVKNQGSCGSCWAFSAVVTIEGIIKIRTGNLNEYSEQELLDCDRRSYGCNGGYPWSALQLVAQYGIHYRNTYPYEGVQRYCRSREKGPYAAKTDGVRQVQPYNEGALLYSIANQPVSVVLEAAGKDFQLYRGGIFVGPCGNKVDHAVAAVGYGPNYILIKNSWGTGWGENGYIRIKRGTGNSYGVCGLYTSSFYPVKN"}},
  "data": [
    {"substance": "Cystatin-Hv (recombinant cystatin of the leech Haementeria vizottoi) (natural protein)", "values": [
      {"measurement": "Ki", "setting": "[1]", "result": 7.9, "unit": "nM"},
      {"measurement": "IC50 of inhibition of papain activity (papain 21.4 nmol/L or 50 ng, 5 µM Z-FR-MCA substrate; 1, 5, 10 and 15 µg of pool 2 from ion-exchange chromatography)", "setting": "papain", "result": 120, "unit": "nM"}
    ]}
  ]
}
